Biological target: Ub-AMC (ubiquitin-AMC), P0CG47
Sequence (P0CG47 whole entry, looked up): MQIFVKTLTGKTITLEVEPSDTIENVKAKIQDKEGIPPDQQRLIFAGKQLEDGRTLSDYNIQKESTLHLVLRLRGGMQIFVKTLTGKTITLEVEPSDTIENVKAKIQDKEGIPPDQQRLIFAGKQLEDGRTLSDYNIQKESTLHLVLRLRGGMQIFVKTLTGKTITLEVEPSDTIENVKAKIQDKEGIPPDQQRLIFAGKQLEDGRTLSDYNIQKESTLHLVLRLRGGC

B1: USP1/UAF1 complex (WT-USP1/UAF1) (protein)
chain 1: MPGVIPSESNGLSRGSPSKKNRLSLKFFQKKETKRALDFTDSQENEEKASEYRASEIDQVVPAAQSSPINCEKRENLLPFVGLNNLGNTCYLNSILQVLYFCPGFKSGVKHLFNIISRKKEALKDEANQKDKGNCKEDSLASYELICSLQSLIISVEQLQASFLLNPEKYTDELATQPRRLLNTLRELNPMYEGYLQHDAQEVLQCILGNIQETCQLLKKEEVKNVAELPTKVEEIPHPKEEMNGINSIEMDSMRHSEDFKEKLPKGNGKRKSDTEFGNMKKKVKLSKEHQSLEENQRQTRSKRKATSDTLESPPKIIPKYISENESPRPSQKKSRVKINWLKSATKQPSILSKFCSLGKITTNQGVKGQSKENECDPEEDLGKCESDNTTNGCGLESPGNTVTPVNVNEVKPINKGEEQIGFELVEKLFQGQLVLRTRCLECESLTERREDFQDISVPVQEDELSKVEESSEISPEPKTEMKTLRWAISQFASVERIVGEDKYFCENCHHYTEAERSLLFDKMPEVITIHLKCFAASGLEFDCYGGGLSKINTPLLTPLKLSLEEWSTKPTNDSYGLFAVVMHSGITISSGHYTASVKVTDLNSLELDKGNFVVDQMCEIGKPEPLNEEEARGVVENYNDEEVSIRVGGNTQPSKVLNKKNVEAIGLLGGQKSKADYELYNKASNPDKVASTAFAENRNSETSDTTGTHESDRNKESSDQTGINISGFENKISYVVQSLKEYEGKWLLFDDSEVKVTEEKDFLNSLSPS
chain 2: not shown
- Km (Ub-AMC deubiquitination assay, USP1/UAF1 complex alone, no DNA): decreasing the Km from 0.79 µM to 0.33 µM
- Km (Ub-AMC deubiquitination assay, USP1/UAF1 complex with fork DNA): decreasing the Km from 0.79 µM to 0.33 µM
